# Measurements taken from patent US20260242839A1, “GLYCOSIDE PRODUCT BIOSYNTHESIS AND RECOVERY” (Manus Bio Inc., priority 2023, published 2026).
# B1: SEQ ID NO: 73: HvUGT_B3 (Hordeum vulgare subsp. Vulgare) (protein)
# chain: MAEANDGGKMHVVMLPWLAFGHVLPFTEFAKRVARQGHRVTLLSAPRNTRRLIDIPPGLAGLIRVVHVPLPRVDGLPEHAEATIDLPSDHLRPCLRRAFDAAFERELSRLLQEEAKPDWVLVDYASYWAPTAAARHGVPCAFLSLFGAAALSFFGTPETLLGIGRHAKTEPAHLTVVPEYVPFPTTVAYRGYEARELFEPGMVPDDSGVSEGYRFAKTIEGCQLVGIRSSSEFEPEWLRLLGELYRKPVIPVGLFPPAPQDDVAGHEATLRWLDGQAPSSVVYAAFGSEVKLTGAQLQRIALGLEASGLPFIWAFRAPTSTETGAASGGLPEGFEERLAGRGVVCRGWVPQVKFLAHASVGGFLTHAGWNSIAEGLAHGVRLVLLPLVFEQGLNARNIVDKNIGVEVARDEQDGSFAAGDIAAALRRVMVEDEGEGFGAKVKELAKVFGDDEVNDQCVREFLMHLSDHSKKNQGQD
# modifications: Hordeum vulgare
# B2: SEQ ID NO: 84: UGT85C1 (Stevia rebaudiana) (protein, listed as Stevia rebaudiana)
# chain: MDQMAKIDEKKPHVVFIPFPAQSHIKCMLKLARILHQKGLYITFINTDTNHERLVASGGTQWLENAPGFWFKTVPDGFGSAKDDGVKPTDALRELMDYLKTNFFDLFLDLVLKLEVPATCIICDGCMTFANTIRAAEKLNIPVILFWTMAACGFMAFYQAKVLKEKEIVPVKDETYLTNGYLDMEIDWIPGMKRIRLRDLPEFILATKQNYFAFEFLFETAQLADKVSHMIIHTFEELEASLVSEIKSIFPNVYTIGPLQLLLNKITQKETNNDSYSLWKEEPECVEWLNSKEPNSVVYVNFGSLAVMSLQDLVEFGWGLVNSNHYFLWIIRANLIDGKPAVMPQELKEAMNEKGFVGSWCSQEEVLNHPAVGGFLTHCGWGSIIESLSAGVPMLGWPSIGDQRANCRQMCKEWEVGMEIGKNVKRDEVEKLVRMLMEGLEGERMRKKALEWKKSATLATCCNGSSSLDVEKLANEIKKLSRN
# B3: SEQ ID NO: 71: AtUGT73C3 (Arabidopsis thaliana) (protein, listed as Arabidopsis thaliana)
# chain: MATEKTHQFHPSLHFVLFPFMAQGHMIPMIDIARLLAQRGVTITIVTTPHNAARFKNVLNRAIESGLAINILHVKFPYQEFGLPEGKENIDSLDSTELMVPFFKAVNLLEDPVMKLMEEMKPRPSCLISDWCLPYTSIIAKNFNIPKIVFHGMGCFNLLCMHVLRRNLEILENVKSDEEYFLVPSFPDRVEFTKLQLPVKANASGDWKEIMDEMVKAEYTSYGVIVNTFQELEPPYVKDYKEAMDGKVWSIGPVSLCNKAGADKAERGSKAAIDQDECLQWLDSKEEGSVLYVCLGSICNLPLSQLKELGLGLEESRRSFIWVIRGSEKYKELFEWMLESGFEERIKERGLLIKGWAPQVLILSHPSVGGFLTHCGWNSTLEGITSGIPLITWPLFGDQFCNQKLVVQVLKAGVSAGVEEVMKWGEEDKIGVLVDKEGVKKAVEELMGDSDDAKERRRRVKELGELAHKAVEKGGSSHSNITLLLQDIMQLAQFKN
# Tests used:
# [1] = maximum solubility of RebM in fermentation broth; format: physicochemical
# Procedure: Fermentation broth was held at a constant temperature of 70° C. and subjected to different treatments as described in Table 7. RebM was slowly added with constant stirring to determine the maximum solubility of RebM.
# [2] = cited from earlier work
# Mog. IIE or Mog. IE = assay: branched glycosylation reactions by cells expressing UGT enzymes; format: cell-based, E. coli; settings: Mog. IIE or Mog. IE fed; 37° C., 48 hr; LC-MS/MS
# Procedure: Mog. IIE or Mog. IE was fed to cells expressing various UGT enzymes. Reactions were incubated at 37° C. for 48 hr. Products were quantified by LC-MS/MS with authentic standards of each compound. “Indirect” evidence means that consumption of substrate was observed.
# Mog. I-E = assay: production of Mog. II-A2 from Mog. I-E; format: cell-based, E. coli; settings: 37° C., 48 hr; FIG. 20
# Procedure: II-A2. Mog. I-E was fed in vitro. In the experiment, engineered E. coli strains (chassis strain) expressing UGT enzyme SEQ ID NO: 73 were incubated at 37° C. for 48 hr. Products were quantified by LC-MS/MS with authentic standards of each compound. […] IE to Mog. II-A2.
# mogrol [3] = assay: primary glycosylation at C3 and C24 hydroxyls of mogrol by cells expressing UGT enzymes; format: cell-based, E. coli; settings: mogrol fed; 37° C., 48 hrs; LCMS/MS
# Procedure: Specifically, mogrol was fed to cells expressing various UGT enzymes. Reactions were incubated at 37° C. for 48 hrs. Products were quantified by LCMS/MS with authentic standards of each compound.
# Mog. IA = assay: bioconversion of Mog. IA into Mog. IIE; format: cell-based, E. coli; settings: 96-well plates, 37° C., 48 hours; FIG. 18A
# Procedure: (§1) IE (FIG. 18B) into Mog. IIE. In the experiment, engineered E. coli chassis strains expressing UGT enzymes, SEQ ID NO: 84, SEQ ID NO: 71, or SEQ ID NO: 33 were incubated in fermentation media containing Mog. IA (FIG. 18A) or Mog. IE (FIG. 18B) in 96-well plates at 37° C. Product formation was examined after 48 hours. Products were measured on LC-MS/MS with authentic standards. The values of Mog. IIE levels in excess of the empty vector control were calculated. […] IE into Mog. IIE.
# Mog. IE = assay: bioconversion of Mog. IE into Mog. IIE; format: cell-based, E. coli; settings: 96-well plates, 37° C., 48 hours; FIG. 18B
# Procedure: as §1
# mogrol [4] = assay: bioconversion of mogrol into mogroside intermediates; format: cell-based, E. coli; settings: 96-well plates, 48 hours, in excess of empty vector control; FIG. 17A
# Procedure: The engineered bacterial strains described herein can be used for the glycosylation of a variety of substrates, including but not limited to terpenoid glycosides. In some aspects, the invention identifies UGT enzymes that are active on the mogrol or mogroside scaffolds. FIGS. 17A and B show the bioconversion of mogrol into mogroside intermediates. Engineered E. coli strains (chassis strain) expressing UGT enzymes were incubated in 96-well plates with mogrol. Product formation was examined after 48 hours. Reported values are those in excess of the empty vector control. Products were measured on LC-MS/MS with authentic standards. […] IE and/or Mog. IIE formed.
molecule,measurement,setting,value
"C=C1C[C@@]23CC[C@H]4[C@@](C)(CCC[C@@]4(C)C(=O)O[C@@H]4O[C@H](CO)[C@@H](O)[C@H](O[C@@H]5O[C@H](CO)[C@@H](O)[C@H](O)[C@H]5O)[C@H]4O[C@@H]4O[C@H](CO)[C@@H](O)[C@H](O)[C@H]4O)[C@@H]2CC[C@]1(O[C@@H]1O[C@H](CO)[C@@H](O)[C@H](O[C@@H]2O[C@H](CO)[C@@H](O)[C@H](O)[C@H]2O)[C@H]1O[C@@H]1O[C@H](CO)[C@@H](O)[C@H](O)[C@H]1O)C3 [RebM, rebaudioside M]",RebM solubility,"[1]; pH 3.5, 70.8 ° C., no small molecule enhancer",68.9 mg/mL
same,RebM solubility,"[1]; pH 7, 70.8 ° C., Glycerol 0.5 wt %",119.0 mg/mL
same,RebM solubility,"[1]; pH 7, 70.8 ° C., no small molecule enhancer",29.9 mg/mL
same,RebM solubility,"[1]; pH 11.6, 70.8 ° C., 1,3-Propanediol 0.5 wt %",151.3 mg/mL
same,RebM solubility,"[1]; pH 11.6, 70.8 ° C., Glycerol 0.5 wt %",151.3 mg/mL
same,times more potent than sucrose,"[2]; estimated, Prakash et al. 2014",200-350 times
C[C@H](CC[C@@H](O[C@@H]1O[C@H](CO[C@@H]2O[C@H](CO)[C@@H](O)[C@H](O)[C@H]2O)[C@@H](O)[C@H](O)[C@H]1O[C@@H]1O[C@H](CO)[C@@H](O)[C@H](O)[C@H]1O)C(C)(C)O)[C@H]1CC[C@@]2(C)[C@@H]3CC=C4[C@@H](CC[C@H](O[C@@H]5O[C@H](CO[C@@H]6O[C@H](CO)[C@@H](O)[C@H](O)[C@H]6O)[C@@H](O)[C@H](O)[C@H]5O)C4(C)C)[C@]3(C)[C@H](O)C[C@]12C [mogroside V],"sweetening capacity, times that of sucrose",[2]; Kasai et al. 1989,~ 250 times
B1,C3 1-2,Mog. IIE or Mog. IE,No
same,C3 1-6,Mog. IIE or Mog. IE,Yes
same,C24 1-2,Mog. IIE or Mog. IE,No
same,C24 1-6,Mog. IIE or Mog. IE,Yes
same,bioconversion of Mog. IE to Mog. II-A2,Mog. I-E,able to catalyze bioconversion of Mog. IE to Mog. II-A2
B2,C3 O-Glucosylation,mogrol [3],Yes
same,C24 O-Glucosylation,mogrol [3],Yes
same,bioconversion of Mog.IA into Mog.IIE,Mog. IA,able to catalyze bioconversion of Mog.IA into Mog.IIE
same,bioconversion of Mog. IE into Mog. IIE,Mog. IE,able to catalyze the bioconversion of Mog. IE into Mog. IIE
B3,C3 O-Glucosylation,mogrol [3],Yes
same,C24 O-Glucosylation,mogrol [3],Yes
same,product formation from mogrol,mogrol [4],largely produced Mog.IA from mogrol
same,bioconversion of Mog.IA into Mog.IIE,Mog. IA,able to catalyze bioconversion of Mog.IA into Mog.IIE
same,bioconversion of Mog. IE into Mog. IIE,Mog. IE,able to catalyze the bioconversion of Mog. IE into Mog. IIE
